What is called EC50 (read off the curve) is the midpoint of the concentration-response curve.

Two molecules from patent US20240376171A1 (Hoffmann-La Roche, published 2024) can be followed below.

Assay [1] deals with T1, PD1 on activated human CD4 and CD8 T cells (human, UniProt Q15116 25-288).
T1 construct: whole, on cells; Endogenous PD1 on CD3/CD28-stimulated T cells; also called human PD1; PD1 receptor
The experiment in a line: flow cytometry, CD3/CD28-activated human PBMCs gated on CD3+CD4+ T cells, PE anti-human Fc secondary antibody; TA constructs pre-incubated with Matriptase, unmasked controls not. As for the experimental part:
(§1) Three formats of TA PD1-IL2v molecules and respective controls were assessed for their capacity to bind to activated PD1 positive CD8 T cells and CD4 T cells within PBMCs in comparison to the respective unmasked molecules.
(§2) PBMCs were purchased from Biomex from a healthy donor (Lot 5000729PB). The PBMCs were stimulated for three days with CD3 and CD28 to induce upregulation of PD1 on T cells. Therefore, PBMCs were seeded in medium (RPMI1640, 10% FCS, 2 mM Glutamine) into cell culture flasks that were coated for 1 hour at 37° C. with 1 μg/ml CD3 (clone OKT3, 302914, BioLegend). CD28 was added in solution to the PBMCs at a concentration of 1 μg/ml (clone CD28.2, 302914, BioLegend). After three days, PBMCs were harvested and transferred into a 96 well round bottom plate (200′000 cells per well). The cells were washed with FACS buffer (PBS, 2% FBS, 5 mM EDTA, 0.025% NaN3) and stained with 30 μl of corresponding TA PD1-IL2v constructs in FACS buffer for 30 min at 4° C. Prior to the staining, 20 μg of the TA PD1-IL2v constructs were digested with 4 μl Matriptase (Enzo ˜2.5 U/μl, ALX-201-246-U25, Lot 12152015, or without Matriptase for the unmasked controls) for 2 hours at 37° C. in 40 μl Matriptase buffer (50 mM Tris, 50 mM NaCl, 0.01% Tween 20, pH 9.0). After the staining, the cells were washed twice with FACS buffer to remove unbound molecules. Then 30 μl of the diluted PE anti-human Fc specific secondary antibody (1:50 dilution, 109-116-170, Jackson ImmunoResearch) was added to the cells. After 30 min incubation at 4° C. the cells were washed twice with FACS buffer. To detect T cells, PBMCs were stained with 30 μl of a mixture of CD3 PE/Cyanine7 (clone UCHT1, 300420, BioLegend), CD4 FITC (clone RPA-T4, 300528, BioLegend) and CD8 APC/Cyanine7 (clone HIT8a, 300926, BioLegend) for 30 min at 4° C. The unbound antibodies were removed by washing twice with FACS buffer. Finally the cells resuspended in 150 μl FACS buffer and measured using a BD Fortessa gating on CD3+CD4+ cells (CD4 T cells) and CD3+CD8+ cells (CD8 T cells).
(A flow cytometer gives signals particle by particle.)

Assay [2] has as its target T1, PD1 on activated human CD4 and CD8 T …. As to the kind of experiment: flow cytometry, CD3/CD28-activated human PBMCs gated on CD3+CD8+ T cells, PE anti-human Fc secondary antibody; TA constructs pre-incubated with Matriptase, unmasked controls not. As to the method:
as §1, §2

The target is the same in assay [3]. The experiment in a line: flow cytometry on CD3/CD28-activated T cells (CD4 and CD8) within human PBMCs; construct digested with matriptase; PE anti-human Fc secondary. As for the experimental part: as §2, with “Then 30 μl of the diluted PE anti-human Fc specific secondary antibody (1:50 dilution, 109-116-170, Jackson ImmunoResearch) was added to the cells. After 30 min incubation at 4° C. the cells were washed twice with FACS buffer. To detect T cells, PBMCs were stained with 30 μl of a mixture of CD3 PE/Cyanine7 (clone UCHT1, 300420, BioLegend), CD4 FITC (clone RPA-T4, 300528, BioLegend) and CD8 APC/Cyanine7 (clone HIT8a, 300926, BioLegend) for 30 min at 4° C. The unbound antibodies were removed by washing twice with FACS buffer.” left out

The target is the same in assay [4]. The experiment in a line: flow cytometry on CD3/CD28-activated T cells (CD4 and CD8) within human PBMCs; no matriptase; PE anti-human Fc secondary. As for the experimental part:
as §2, with “Then 30 μl of the diluted PE anti-human Fc specific secondary antibody (1:50 dilution, 109-116-170, Jackson ImmunoResearch) was added to the cells. After 30 min incubation at 4° C. the cells were washed twice with FACS buffer. To detect T cells, PBMCs were stained with 30 μl of a mixture of CD3 PE/Cyanine7 (clone UCHT1, 300420, BioLegend), CD4 FITC (clone RPA-T4, 300528, BioLegend) and CD8 APC/Cyanine7 (clone HIT8a, 300926, BioLegend) for 30 min at 4° C. The unbound antibodies were removed by washing twice with FACS buffer.” left out

T1 sequence (Q15116 25-288): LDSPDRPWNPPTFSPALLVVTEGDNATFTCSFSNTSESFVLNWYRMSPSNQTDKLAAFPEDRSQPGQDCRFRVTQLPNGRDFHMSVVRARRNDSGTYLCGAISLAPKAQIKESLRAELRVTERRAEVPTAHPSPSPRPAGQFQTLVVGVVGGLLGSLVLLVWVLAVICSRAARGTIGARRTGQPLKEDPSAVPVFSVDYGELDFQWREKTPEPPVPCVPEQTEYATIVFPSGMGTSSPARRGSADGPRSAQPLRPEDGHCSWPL

B1: human TA PD1-IL2v, MT204, 2xPQARK, N-term (antibody)
light: DIVMTQSPDSLAVSLGERATINCKASESVDTSDNSFIHWYQQKPGQSPKLLIYRSSTLESGVPDRFSGSGSGTDFTLTISSLQAEDVAVYYCQQNYDVPWTFGQGTKVEIKRTVAAPSVFIFPPSDEQLKSGTASVVCLLNNFYPREAKVQWKVDNALQSGNSQESVTEQDSKDSTYSLSSTLTLSKADYEKHKVYACEVTHQGLSSPVTKSFNRGEC
heavy: EVQLLESGGGLVQPGGSLRLSCAASGFSFSSYTMSWVRQAPGKGLEWVATISGGGRDIYYPDSVKGRFTISRDNSKNTLYLQMNSLRAEDTAVYYCVLLTGRVYFALDSWGQGTLVTVSSASTKGPSVFPLAPSSKSTSGGTAALGCLVKDYFPEPVTVSWNSGALTSGVHTFPAVLQSSGLYSLSSVVTVPSSSLGTQTYICNVNHKPSNTKVDKKVEPKSCDKTHTCPPCPAPEAAGGPSVFLFPPKPKDTLMISRTPEVTCVVVDVSHEDPEVKFNWYVDGVEVHNAKTKPREEQYNSTYRVVSVLTVLHQDWLNGKEYKCKVSNKALGAPIEKTISKAKGQPREPQVCTLPPSRDELTKNQVSLSCAVKGFYPSDIAVEWESNGQPENNYKTTPPVLDSDGSFFLVSKLTVDKSRWQQGNVFSCSVMHEALHNHYTQKSLSLSPG
chain: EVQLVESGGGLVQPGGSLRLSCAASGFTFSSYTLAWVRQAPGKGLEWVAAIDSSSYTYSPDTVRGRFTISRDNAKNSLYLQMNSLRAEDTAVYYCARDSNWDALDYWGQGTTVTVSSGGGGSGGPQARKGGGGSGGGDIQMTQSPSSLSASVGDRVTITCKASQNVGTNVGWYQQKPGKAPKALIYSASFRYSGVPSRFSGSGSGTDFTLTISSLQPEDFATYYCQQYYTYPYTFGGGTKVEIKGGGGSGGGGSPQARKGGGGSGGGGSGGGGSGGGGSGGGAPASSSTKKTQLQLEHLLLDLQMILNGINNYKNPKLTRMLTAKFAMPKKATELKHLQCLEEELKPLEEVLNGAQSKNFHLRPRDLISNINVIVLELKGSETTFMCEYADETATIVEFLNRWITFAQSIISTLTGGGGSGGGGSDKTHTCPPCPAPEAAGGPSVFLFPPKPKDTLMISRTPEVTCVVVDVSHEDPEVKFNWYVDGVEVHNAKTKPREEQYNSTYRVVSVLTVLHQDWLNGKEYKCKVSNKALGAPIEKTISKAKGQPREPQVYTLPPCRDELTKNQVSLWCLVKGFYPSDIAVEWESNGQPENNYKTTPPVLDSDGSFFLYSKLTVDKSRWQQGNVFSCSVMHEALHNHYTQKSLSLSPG
notes: One-armed human PD1-targeted human IgG PG LALA (knobs-into-holes); MT204 scFv-masked IL2v is fused N-terminally to the hinge of the Fc knob chain, with two PQARK sites; also called P1AG9597; P1AG9597-007
Turning to B1, the results for the “EC50 (read off the curve)” value in assay [1] and in assay [2] were roughly 2 nM and roughly 3 nM, respectively. The “fold binding capacity versus the "in line" and knob/hole formats” value in assay [3] is roughly 2 fold.

B2: human PD1-IL2v, unmasked, N-term (antibody, human IgG1, kappa, L234A L235A)
light: DIVMTQSPDSLAVSLGERATINCKASESVDTSDNSFIHWYQQKPGQSPKLLIYRSSTLESGVPDRFSGSGSGTDFTLTISSLQAEDVAVYYCQQNYDVPWTFGQGTKVEIKRTVAAPSVFIFPPSDEQLKSGTASVVCLLNNFYPREAKVQWKVDNALQSGNSQESVTEQDSKDSTYSLSSTLTLSKADYEKHKVYACEVTHQGLSSPVTKSFNRGEC
heavy: EVQLLESGGGLVQPGGSLRLSCAASGFSFSSYTMSWVRQAPGKGLEWVATISGGGRDIYYPDSVKGRFTISRDNSKNTLYLQMNSLRAEDTAVYYCVLLTGRVYFALDSWGQGTLVTVSSASTKGPSVFPLAPSSKSTSGGTAALGCLVKDYFPEPVTVSWNSGALTSGVHTFPAVLQSSGLYSLSSVVTVPSSSLGTQTYICNVNHKPSNTKVDKKVEPKSCDKTHTCPPCPAPEAAGGPSVFLFPPKPKDTLMISRTPEVTCVVVDVSHEDPEVKFNWYVDGVEVHNAKTKPREEQYNSTYRVVSVLTVLHQDWLNGKEYKCKVSNKALGAPIEKTISKAKGQPREPQVCTLPPSRDELTKNQVSLSCAVKGFYPSDIAVEWESNGQPENNYKTTPPVLDSDGSFFLVSKLTVDKSRWQQGNVFSCSVMHEALHNHYTQKSLSLSPGK
chain: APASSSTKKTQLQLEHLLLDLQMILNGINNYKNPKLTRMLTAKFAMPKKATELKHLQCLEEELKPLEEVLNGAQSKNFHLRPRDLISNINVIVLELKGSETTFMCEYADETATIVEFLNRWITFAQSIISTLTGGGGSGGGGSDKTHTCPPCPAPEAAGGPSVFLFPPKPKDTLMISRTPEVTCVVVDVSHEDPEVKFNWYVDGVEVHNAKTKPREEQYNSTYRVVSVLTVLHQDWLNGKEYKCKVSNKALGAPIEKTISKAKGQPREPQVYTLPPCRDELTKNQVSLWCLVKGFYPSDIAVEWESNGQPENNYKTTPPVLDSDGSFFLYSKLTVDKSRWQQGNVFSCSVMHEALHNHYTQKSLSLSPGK
notes: One-armed human PD1-targeted human IgG PG LALA with IL2v fused N-terminally to the hinge of the Fc knob chain (non-masked control); also called P1AG3071; P1AG3071-004
For the molecule B2, the “EC50 (read off the curve)” value in assay [1] is roughly 1 nM; in assay [2], roughly 2 nM. In assay [4], the “fold binding capacity versus the "in line" and knob/hole formats” value was roughly 2 fold.
